For experiment [1], the target named is Intracellular part of Medicago truncatula Cytokinin Receptor 1 (MtCRE1′) (Medicago truncatula). Briefly: SEC. (In general: Size exclusion chromatography separates by hydrodynamic size, large species first.)
Experiment [2] has the same target. The experiment is described as follows: dynamic light scattering.

In the case of “Intracellular part of Medicago truncatula Cytokinin Receptor 1 (MtCRE1′) (domain or fragment)”, the stoichiometry N in experiment [1] and in experiment [2] was 2 each time.

The values above are taken from publication PMC3716865.
